The source of these data is the nanobody polyreactivity screen of Harvey et al. (2022).

The data set in a line: yeast display, Sf9 membrane polyspecificity reagent, FACS + sequencing; frameworks hold sequencing errors. In a few lines:
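After 36–48 hours of galactose induction, yeast (Saccharomyces cerevisiae BJ5465) displaying a synthetic nanobody library were stained at 4 °C for 1 hour with 10% biotinylated, detergent-solubilized Sf9 membrane reagent. Streptavidin microbeads enriched the stained cells before FACS sorting into low and high (top ~1%) gates on anti-HA and streptavidin fluorescence. Each clone's polyreactivity label reflects its gate of origin.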
Consider “QVQLVESGGGLVQAGGSLRLSCAASGRIFWYYAMGWYRQAAGKERELVAAISSGTTKYADSVKGRFTISRDNAKNTVYLQMNSLKPEDTAVYYCNAAAYYPTNYGGYLFEYWGQGTQVTVSS”, for which the “polyreactivity (PSR sort gate)” value was “low polyreactivity”.
Take “QFQLVESGGGLVQAGGSLRLSCAASGRIFYKYVMGWYRQAPGKERELVAAINRSGGTTYYADSVKGRFTISRDNAKNTVYLQMNSLKPEDTAVYYCNATLPDYWPYYYYQGGDDYWGQGTQVTVSS”: the “polyreactivity (PSR sort gate)” value was “low polyreactivity”.
Take “QVQLVESGGGLVQAGGSLRLICAASGRTFAYYAMGWYRQAPGKERELVATITWNGGSTYYADSVKGRFTISRDNAKNTVYLQMNSLKPEDTAVYYCAKSVGWWSPPLGDYWGQGTQVTVSS”: the “polyreactivity (PSR sort gate)” value is given as “low polyreactivity”.
For “QVQLVESGGGLVPAGGSLRLSCAASGRIFRGYAMGWYRQAHGKEREFVAAITKNGGTTYYADSVKGRFTISRDNAKNTVYLQMNSLKPEDTAVYYCNKDGYPWPPNLDYWGQGTQVTVSS” the value was “low polyreactivity”; for “QVQLVESGGGLVQAGGSLRLSCAASGSTFFIYAMGWYRPAPGKERELVAAISWRDGSTYYADSVKGRFTISRDNAKNTVYLQMNSLKPEDTAVYYCAADYLLPWGIELDYWGQGTQVTVSS”, “high polyreactivity”.
As to “QVQLVESGGGVGQAGGSLRLSCAASGYTFPDYAMGWYRQAPGKERELFAAIRSGGGTNYADSVKGRFTISRDNAKNTVYLLMNSLQPVDTAVYYSAKEWAGGLYDYWGQGTKVTVSS”, the “polyreactivity (PSR sort gate)” value is “low polyreactivity”.
For “QVQLVESGGGLLQAGGSLRLSCAASGITFQGYAMGWYRQAPGKERELVAAITYRGGSTYYADSVKGRFTISRDNAKNTVYLQMNSLKPEDTAVYYCARDHSRHLHPSWLDYWGQGTQVTVSS” the value was “high polyreactivity”; for “QVQLVESGGGLVQAGGSLRLSCAASGSTLSDNAMGWYRQAPGKERELVASISWSGGTYYADSVKGRFTISRDNAKNTVYLQMNSLKPEDTAVYYCAAYIYYNYSRQYWFDYWGQGTQVTVSS”, “low polyreactivity”.
Take “QVQLVESGGVLVQAGGSLRLSCAASGSTFGLNAMGWYRQAPGKERELVAAITRSDITNYADSVKGRFTISRDNAKNTVYLQMNSLKPEDTAVYYCAARGLWPYDYWGQGTQVTVSS”: the “polyreactivity (PSR sort gate)” value is reported as “low polyreactivity”.
Regarding “QVQLVDSGAGLVQAGGSLRLSCDASGSTFRGYAMGWYRQSPWKERELVAAITYISDSTYYADSVKGRFTISRDNAKNTVFLQMISLNPEDTAVYYCNAYYDGDWRYTSQVTGDLWGQGTQVTVSS”, the “polyreactivity (PSR sort gate)” value is listed as “low polyreactivity”.
For “QVQLVESGVRLVQAVGSHRLSCAASASIIDGNSMGWYRQAPGKERELGAVISSRGTRTYYADSVKGRFTISRDNAKKTVYLQMNILKPEDTAVYYCNTRTSDLNGSGDYWGLGTQVTVSS” the value was “high polyreactivity”.
“QVQLVESGGGLVQAGGSLRLSCAASGRTFKRNPMGWYRQAPGKERELVAAISGTGSTNYADSVKGRFTISRDNAKNTVYLQMNSLKPEDSAVYYCNADIYSYRYPYVYWGQGTQVTVSS”: the “polyreactivity (PSR sort gate)” value is “low polyreactivity”.
Consider “QVQLVESGGGLVQAGGSLRLSCAASGSTFTTNAMGWYSQAPGKERELVATISGGGSTYYADSVKGRFTISRDNAKNTVYLQMNSLKPEDTAVYYCATDVQVPGIGRSVYAYEYWGQGTQVTVSS”, for which the “polyreactivity (PSR sort gate)” value is listed as “low polyreactivity”.
For “QVQLVESGAGLVQAGGSLRLSCAASGRIFGYYAMGWYRQAPGKERELVAAITRGGSTYYADSVKGRFTISRDNAKHTVYLQMNSLKPEDTAVYFCAANISGLVKYENDYWGQGTQLTVSS” the value was “low polyreactivity”; for “QVQLVESGGGLVQAGGRLRLSCAASGRIFDRYAMGWYRQAPGKERELVAGISFSGGRTYYADSVKGRFTISRDNAKNTVYLQMNSLKPEDTAVYYCNTVTSGFLSYDYWGQGTQVTVSS”, “high polyreactivity”; for “QVQLVESGGGLVQAGGSLRLSCAASGRIFIYYTMGWYRQAPGKERELVAAINSGGSTKYADSVKGRFTISRDNAKNTVYLQMNSLKPEDTAVYYCARRGGFSYYYWGQGTQVTVSS”, “high polyreactivity”.
On to “QVQLVESGGGLVQAGGSLRLSCAASGYIFSYYAMGWYRQAPGKERELVAAINRSGGRTYYADSVKGRFTISRDNAKNTVYLQMNSLKPEDTAVYYCAADQLSDEYDYWGQGTQVTVSS”, for which the “polyreactivity (PSR sort gate)” value is “high polyreactivity”.
For “QVQLVESGGGLVQAGGSLRLSCAASGSTFPKYAMGWYRQAPGKERELVASISVTTGSTYYADSVKGRFTISRDNAKNTVYLQMNSLKPEDTAVYYCAKRTYSRKFRGAYNYWGQGTQVTVSS” the value was “high polyreactivity”; for “QVQLVESGGGLVQAGGSLRLSCAASGSIFKRNAMGWYRQAPGKERELVAAITSSGGTTYYADSVKGRFTISRDNAKNTVYLQMNSLKPEDTAVYYCNAGYGVRSVRRFDYWGQGTQVTVSS”, “high polyreactivity”; for “QVQLIESGGGLVQAGGSLRLSCAASGSTLGLYDMGWYRQAPGKERELVAAISTGSGSTYYADSVKGRFTISRDNAKYTVYLLMISLKPEDTAVYYCNTDAWYSPIWFWVDSWGQGTQVTVSS”, “low polyreactivity”.
For “QVQLVESGGGLVQAGGRLRLTCAASGSIFEGYAMGWYRQAPGKERELGARITSDDDSTYYADSVKGRFTISRDNAKNSVYLQMKSLKPEDTAVYYCNAVYYWTSLAMDSWGQGTQVTVSS” the value was “low polyreactivity”.
Consider “QVQLVESGGGLVQAGGSLRLSCAASGRISGGYDMGWYRQAPGKERELVAAITNTGGITYYADSVKGRFTISRDNAKNTVYLQMNSLKPEDTAVYYCNAEYEISFYVLFDYWGQGTQVTVSS”, for which the “polyreactivity (PSR sort gate)” value is on record as “low polyreactivity”.
As for “QVQLVESGGGLLQAGGSLRLSCAASGRTFHTYAMGWYRHAPGKERELVAAISRSGGSTYYADSVKGRFTISRDNAMNPVYLQMNSLKPEDTAVYYCADTAGYWGQGTQVTVSS”, the “polyreactivity (PSR sort gate)” value is “high polyreactivity”.
Regarding “QVQLVESGGGLVQAGGSLRLSCAASGSIFKYYTMGWYRQAPGKEREFVAAITRSGGSTYYADSVKGRFTISRDNAKNTVYLQMNSLKPEDTAVYYCAARTIRDQTVRFGHWGQGTQVTVSS”, the “polyreactivity (PSR sort gate)” value is reported as “high polyreactivity”.
Consider “QVQLVESGGGLVQAGGSLRLSCSASGLTLAPNAMGWYRQAPGKERELVAAITRSGGDTYYADSVKGRFTISRDNAKNTVYLQMNSLKPEDTAVYYCAADYWFRYGTYEYWGQGTQVTVSS”, for which the “polyreactivity (PSR sort gate)” value is given as “high polyreactivity”.
As to “QVQLVESGGGLVQAGGSLRLSCAASGYIFPDYPMGWYRPATGKERELVAAFTSSGGRTYYADSVKGRFTISRDNAKNTVYLQMNSLKPEDTAVYYCAAVSVLKKTFDYWGQGTQVTVSS”, the “polyreactivity (PSR sort gate)” value was “high polyreactivity”.
For “QVQLVESGGRLVQAGGSLRLSCAASGRTFDFYAMGWYRQAPGKERELVAAISSRGGSTYYADSVKGRFTISRDNAKNTVYLQMNSLKPEDTAVYYCAKDLGYRGRYNYWGQGTQVTVSS” the value was “low polyreactivity”; for “QVQLVESGGGLVQAGGSLRLSCAASGRTFYIYTMGWYRQAPGKERELVAAISSSGDSTYYADSVKGRFTISRDNAKNTVFLQMNPLKPEDTAVYYCAAYPTYPDEYWGQGTQVTVSS”, “low polyreactivity”; for “QVQLVESGGGLVQAGGSLRLSCAASGRTFSVNDMGWYRQAPGKERELVAAISFSGGSTYYADSVKGRFTISRDNAKNTVYLQMNSLKPEDTAVYYCAAEAYPVRRLNLPGYDYWGQGTQVTVSS”, “high polyreactivity”.
Take “QVQHVESGGGLVQAGGSLRLSCAASGYNFPYNPMGWYRQATGKEREFVAASTSSGGSTYYADSVKGRFTISRDNAKNTVYLQMNSLKPEDTAVYYCARVPLHRYGYWGQGTQVNVSS”: the “polyreactivity (PSR sort gate)” value was “high polyreactivity”.
For “QVQLVESGGGLVQAGGSLRLSCAASGFTFRYYAMGWYRQAPGKEREFVAAITRSGGRTYYADSVKGRFTISRDNAKNTVYLQMNSLKPEDTAVYYCAARYVSRFDWGQGTQVTVSS” the value was “high polyreactivity”; for “QVQLVESGGGLVQAGGSLRLSCVASGSIFKQYAMGWYRQAPGKERELVAGISKTGGRTYYADSVKGRFTISRDNAKNTVYLQMNSLKPEDTAVYYCAAYFRSDYGYWGQGTQVTVSS”, “high polyreactivity”.
For “QVQLVESGGGLVQAGCSLRLSCAASGSTFRKYAMGWYSQAPGKQREFVAAITSSGGSTYYSDSVKGRFTISRDKAKNTVYLLMNSLIPEDTAVYYCASRGVYVSTAYNYWGQGTQVTESS” the value was “high polyreactivity”; for “QVQLVESGGGLVQAGGSLRLSCAASGGIFADYAMGWYRQAPGKERELVADISARGGSTYNADSVKGRFTISRDNAKNTVYLQMNSLKPEDTAVYYCATDGPGYPPTLRYDYWGQGTQVTVSS”, “low polyreactivity”; for “QVQLVESGGGLVQAGGSLRLSCAASGRIFLYNAMGWYRQAPGKERELVAVISSNGGRTYYADSVKGRFTISRDNAKNTVYLQMNSLKPEDTAVYYCAAVQHYVTHMDYWGQGTQVTVSS”, “low polyreactivity”.
For “QVQLEESGGGLVQAGGSLRLSCAASGSIFSAYFMVWYRQAPGKERELVAAINRGGNTYYADSVKGRFTISRDNANITVYLQMNSLKPEDTAVYYCNAQWYYLRYRYDYWGQGTQVTVSS” the value was “high polyreactivity”.
For “QVQLVESGGGLVQAGGSLRLSCAASGRIFYVYAMGWYRQAPGKERELVAAISWSGGGTYYADSVKGRFTISRDNAKNTVYLQMNSLKPEDTAVYYCATVSGVPPGSHDYWGQGTQVTVSS”, the “polyreactivity (PSR sort gate)” value is given as “low polyreactivity”.
For the sequence “QVQLVVSGGGLVQAGGSLRLSCAASGITFYEYAMGWYRQSPGKESELVATITSGGNTNYADSVKGRFTISRDNAKNTGYLLMNSLIPEDTSVYYCAASVGYYSRYGYGYWGQGTQVTVSS”, the “polyreactivity (PSR sort gate)” value is “low polyreactivity”.
Turning to “QVQLVESGGGLVQAGGRLRLSCAASGFTLWGYAMGWYRQAPGKERELVASMSWSGGGTNYADSVKGRFTISRDNAKNTVYLQMNSLKPEDPAVYYCAAQYYTVSRYYGVERKFGYWGQGSQVTVSS”, the “polyreactivity (PSR sort gate)” value is given as “high polyreactivity”.
For the sequence “QVQLVESGGGLVQAGGRLRLSCAASGYTFKFNAMGWYRQAPGKETELVAGITRGGGTYADSVKGRFTISRDNAKNTVYLQMNSLKPDDTAVSYCASAWGAPSRFFSAFDYWGQGTQVTVSS”, the “polyreactivity (PSR sort gate)” value is “low polyreactivity”.
For “QVQLVESGGGLVQAGGSLSLSCAASGSTFGSNAMGWYRQAPAKERELVAAISWSGGRTYYADSVKGRFTISRDNAKNTVYLQMNRLIPEDTAVYYCYARQFRTMGYWGQGTQVNVSS” the value was “high polyreactivity”.
